Reference: patent publication US20050130151

System: FMRP RGG box (isolated, C-terminal deletion construct) (Homo sapiens), Q06787-9
Test: filter

28S rRNA fragment (230 nt)
Kd: > 5 µM
